# Data published in patent WO2016008851A1.
# Assays:
# [1] = target: recombinant human IL-1B (human) (UniProt P01584); assay: cell-based or functional assay
# [2] = target: Endogenous human IL-1B (THP1 supernatants) (human) (UniProt P01584); assay: cell-based or functional assay
substance,measurement,setting,value
ACZ885 (disclosed in WO 2002/016436) (antibody),"IC50, rec. human IL-1 B, HEK blue",[1],0.068 nM
same,"IC50, rec. human IL-1 B, MRC-5 (IL-6 production)",[1],0.032 nM
same,"IC90, rec. human IL-1 B, HEK blue",[1],0.503 nM
same,"IC90, rec. human IL-1 B, MRC-5 (IL-6 production)",[1],0.449 nM
same,"IC90, Endogenous human IL-1 B (THP1 supernatants), HEK blue",[2],0.292 nM
